Results: PMC4381330, “Identification of a novel selective agonist of PPARγ with no promotion of adipogenesis and less inhibition of osteoblastogenesis” (Scientific Reports, 2015)
No end group written: not given here.

Biological target: T1, GST-fused human PPARγ-LBD (human)
T1 construct: Kit protein, detected through a terbium-labeled anti-GST antibody
Assay: AlphaScreen or HTRF; LanthaScreen TR-FRET coregulator peptide assay; serial concentrations of rosiglitazone with GST-PPARγ-LBD, terbium-labeled anti-GST antibody and fluorescein-labeled peptide, 4 h; 520 nm/495 nm ratio
Settings: both partners purified

T1 sequence (P37231 whole entry, the tested form may be a part): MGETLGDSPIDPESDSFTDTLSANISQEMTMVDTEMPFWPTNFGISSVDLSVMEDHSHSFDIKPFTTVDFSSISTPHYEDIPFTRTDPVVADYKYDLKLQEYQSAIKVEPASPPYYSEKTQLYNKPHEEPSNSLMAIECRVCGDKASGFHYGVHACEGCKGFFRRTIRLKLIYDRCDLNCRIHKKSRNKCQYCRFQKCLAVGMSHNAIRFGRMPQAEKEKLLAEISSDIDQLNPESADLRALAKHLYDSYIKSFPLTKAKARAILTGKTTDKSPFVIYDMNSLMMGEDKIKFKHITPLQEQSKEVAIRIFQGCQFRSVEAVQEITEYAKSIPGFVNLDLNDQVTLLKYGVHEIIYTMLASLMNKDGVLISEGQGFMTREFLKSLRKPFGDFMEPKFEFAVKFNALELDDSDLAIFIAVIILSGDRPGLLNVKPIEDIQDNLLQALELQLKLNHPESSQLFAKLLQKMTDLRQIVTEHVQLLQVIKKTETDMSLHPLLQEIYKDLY

efficacy (maximum recruitment, % of rosiglitazone), with rosiglitazone	Binder
100%	NTKNHPMLMNLLKDNPAQD (also: fluorescein label, position not given here)
100%	EAEEPSLLKKLLLAPANTQ (also: fluorescein label, position not given here) [PPARγ coactivator 1α (PGC-1α) peptide, fluorescein-labeled]
100%	VTLTSPLLVNLLQSDISAG (also: fluorescein label, position not given here) [nuclear receptor coactivator 250 (RAP250) peptide, fluorescein-labeled]

Biological target: T1, GST-fused human PPARγ-LBD
Assay: AlphaScreen or HTRF; LanthaScreen TR-FRET coregulator peptide assay; serial concentrations of F12016 with GST-PPARγ-LBD, terbium-labeled anti-GST antibody and fluorescein-labeled peptide, 4 h; coactivator data as percent of the maximum of rosiglitazone
Settings: both partners purified

efficacy (maximum recruitment, % of rosiglitazone), with F12016	Binder
17%	NTKNHPMLMNLLKDNPAQD (also: fluorescein label, position not given here)
57%	EAEEPSLLKKLLLAPANTQ (also: fluorescein label, position not given here) [PPARγ coactivator 1α (PGC-1α) peptide, fluorescein-labeled]
25%	VTLTSPLLVNLLQSDISAG (also: fluorescein label, position not given here) [nuclear receptor coactivator 250 (RAP250) peptide, fluorescein-labeled]
